B1: CT-F3 (bispecific antibody, human IgG1, kappa)
scFv: EVQLVESGGGLVQPGGSLRLSCAASGFTFSTYAMNWVRQAPGKGLEWVARIRSKYNNYATYYADSVKDRFTISRDDSKNTLYLQMNSLRAEDTAVYYCARHGNFGNSYVSWFAYWGQGTMVTVSSGGGGSGGGGSGGGGSQAVVTQEPSLTVSPGGTVTLTCGSSTGAVTTSNYANWVQQKPGQAPRGLIGGTNKRAPGVPARFSGSLLGGKAALTLSGAQPEDEAEYYCALWYSNLWVFGGGTKLEIKGGGGSDKTHTCPPCPAPEFEGGPSVFLFPPKPKDTLMISRTPEVTCVVVDVSHEDPEVKFNWYVDGVEVHNAKTKPREEQYNSTYRVVSVLTVLHQDWLNGKEYKCKVSNKALPASIEKTISKAKGQPREPQVCTLPPSRDELTKNQVSLSCAVKGFYPSDIAVEWESNGQPENNYKTTPPVLDSDGSFFLVSKLTVDKSRWQQGNVFSCSVMHEALHNHYTQKSLSLSPGK
heavy: EVQLLESGGGLVQPGGSLRLSCAVSGFTFNSFAMSWVRQAPGKGLEWVSAISGSGGGTYYADSVKGRFTISRDNSKNTLYLQMNSLRAEDTAVYFCAKDKILWFGEPVFDYWGQGTLVTVSSASTKGPSVFPLAPSSKSTSGGTAALGCLVKDYFPEPVTVSWNSGALTSGVHTFPAVLQSSGLYSLSSVVTVPSSSLGTQTYICNVNHKPSNTKVDKKVEPKSCDKTHTCPPCPAPEFEGGPSVFLFPPKPKDTLMISRTPEVTCVVVDVSHEDPEVKFNWYVDGVEVHNAKTKPREEQYNSTYRVVSVLTVLHQDWLNGKEYKCKVSNKALPASIEKTISKAKGQPREPQVYTLPPCRDELTKNQVSLWCLVKGFYPSDIAVEWESNGQPENNYKTTPPVLDSDGSFFLYSKLTVDKSRWQQGNVFSCSVMHEALHNHYTQKSLSLSPGK
light: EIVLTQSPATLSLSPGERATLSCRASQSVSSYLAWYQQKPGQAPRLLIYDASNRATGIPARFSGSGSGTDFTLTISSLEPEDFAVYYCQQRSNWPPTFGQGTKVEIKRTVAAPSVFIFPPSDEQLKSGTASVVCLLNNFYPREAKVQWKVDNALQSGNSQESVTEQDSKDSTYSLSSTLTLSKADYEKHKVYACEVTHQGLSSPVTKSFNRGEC
notes: Comparative: anti-CD38 (Dara) Fab arm and anti-CD3 scFv (CD3 antibody 1 VH, CD3 antibody 2 VL)-Fc fusion peptide
B2: Y150-F8-7 (bispecific antibody, human IgG1, kappa, N297A)
scFv: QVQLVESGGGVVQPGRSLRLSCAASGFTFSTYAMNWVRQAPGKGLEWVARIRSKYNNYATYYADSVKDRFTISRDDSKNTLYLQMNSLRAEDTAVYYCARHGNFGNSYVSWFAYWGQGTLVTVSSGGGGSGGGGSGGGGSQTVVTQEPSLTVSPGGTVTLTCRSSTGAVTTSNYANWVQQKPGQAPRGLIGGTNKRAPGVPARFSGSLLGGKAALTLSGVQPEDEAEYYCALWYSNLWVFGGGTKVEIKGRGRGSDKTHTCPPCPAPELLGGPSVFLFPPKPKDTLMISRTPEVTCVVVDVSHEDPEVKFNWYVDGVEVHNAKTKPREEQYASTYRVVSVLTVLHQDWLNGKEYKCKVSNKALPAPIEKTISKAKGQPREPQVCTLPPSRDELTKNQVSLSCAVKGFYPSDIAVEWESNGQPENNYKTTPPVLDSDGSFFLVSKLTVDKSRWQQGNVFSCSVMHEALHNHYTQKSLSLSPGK
heavy: EVQLLESGGGLVQPGGSLRLSCAVSGFTFNSFAMSWVRQAPGKGLEWVSAISGSGGGTYYADSVKGRFTISRDNSKNTLYLQMNSLRAEDTAVYFCAKDKILWFGEPVFDYWGQGTLVTVSSASTKGPSVFPLAPSSKSTSGGTAALGCLVKDYFPEPVTVSWNSGALTSGVHTFPAVLQSSGLYSLSSVVTVPSSSLGTQTYICNVNHKPSNTKVDKKVEPKSCDKTHTCPPCPAPELLGGPSVFLFPPKPKDTLMISRTPEVTCVVVDVSHEDPEVKFNWYVDGVEVHNAKTKPREEQYASTYRVVSVLTVLHQDWLNGKEYKCKVSNKALPAPIEKTISKAKGQPREPQVYTLPPCRDELTKNQVSLWCLVKGFYPSDIAVEWESNGQPENNYKTTPPVLDSDGSFFLYSKLTVDKSRWQQGNVFSCSVMHEALHNHYTQKSLSLSPGK
light: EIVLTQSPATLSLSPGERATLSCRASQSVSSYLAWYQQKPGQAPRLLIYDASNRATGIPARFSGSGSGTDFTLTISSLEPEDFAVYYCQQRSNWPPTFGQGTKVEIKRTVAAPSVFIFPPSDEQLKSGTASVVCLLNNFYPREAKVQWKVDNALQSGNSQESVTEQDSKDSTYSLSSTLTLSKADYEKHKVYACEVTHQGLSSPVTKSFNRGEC
notes: Anti-CD38 (Dara) Fab arm and anti-CD3 scFv (VH2a/VL5)-Fc fusion peptide, CH2 N297A
B3: Y150-F8-6 (bispecific antibody, human IgG1, kappa)
scFv: QVQLVESGGGVVQPGRSLRLSCAASGFTFSTYAMNWVRQAPGKGLEWVARIRSKYNNYATYYADSVKDRFTISRDDSKNTLYLQMNSLRAEDTAVYYCVRHGNFGNSYVSWFAYWGQGTLVTVSSGGGGSGGGGSGGGGSQTVVTQEPSLTVSPGGTVTLTCRSSTGAVTTSNYANWVQQKPGQAPRGLIGGTNKRAPGVPARFSGSLLGGKAALTLSGVQPEDEAEYYCALWYSNLWVFGGGTKVEIKGGGGSDKTHTCPPCPAPEFEGGPSVFLFPPKPKDTLMISRTPEVTCVVVDVSHEDPEVKFNWYVDGVEVHNAKTKPREEQYNSTYRVVSVLTVLHQDWLNGKEYKCKVSNKALPASIEKTISKAKGQPREPQVCTLPPSRDELTKNQVSLSCAVKGFYPSDIAVEWESNGQPENNYKTTPPVLDSDGSFFLVSKLTVDKSRWQQGNVFSCSVMHEALHNHYTQKSLSLSPGK
heavy: EVQLLESGGGLVQPGGSLRLSCAVSGFTFNSFAMSWVRQAPGKGLEWVSAISGSGGGTYYADSVKGRFTISRDNSKNTLYLQMNSLRAEDTAVYFCAKDKILWFGEPVFDYWGQGTLVTVSSASTKGPSVFPLAPSSKSTSGGTAALGCLVKDYFPEPVTVSWNSGALTSGVHTFPAVLQSSGLYSLSSVVTVPSSSLGTQTYICNVNHKPSNTKVDKKVEPKSCDKTHTCPPCPAPEFEGGPSVFLFPPKPKDTLMISRTPEVTCVVVDVSHEDPEVKFNWYVDGVEVHNAKTKPREEQYNSTYRVVSVLTVLHQDWLNGKEYKCKVSNKALPASIEKTISKAKGQPREPQVYTLPPCRDELTKNQVSLWCLVKGFYPSDIAVEWESNGQPENNYKTTPPVLDSDGSFFLYSKLTVDKSRWQQGNVFSCSVMHEALHNHYTQKSLSLSPGK
light: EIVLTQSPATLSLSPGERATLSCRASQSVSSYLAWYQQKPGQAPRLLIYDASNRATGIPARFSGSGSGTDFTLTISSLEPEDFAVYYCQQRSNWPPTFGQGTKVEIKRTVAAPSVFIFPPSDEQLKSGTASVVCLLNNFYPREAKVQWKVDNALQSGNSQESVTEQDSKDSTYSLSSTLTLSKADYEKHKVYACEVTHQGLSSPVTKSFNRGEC
notes: also called Y150-8-6
B4: CT-F2 (bispecific antibody, human IgG1, kappa)
scFv: EVQLVESGGGLVQPGGSLRLSCAASGFTFNTYAMNWVRQAPGKGLEWVGRIRSKYNNYATYYADSVKGRFTISRDDSKNTLYLQMNSLRAEDTAVYYCARHGNFGNSYVSWFAYWGQGTLVTVSSGGGGSGGGGSGGGGSQAVVTQEPSLTVSPGGTVTLTCGSSTGAVTTSNYANWVQQKPGQAPRGLIGGTNKRAPGVPARFSGSLLGGKAALTLSGAQPEDEAEYYCALWYSNLWVFGGGTKLEIKGGGGSDKTHTCPPCPAPEFEGGPSVFLFPPKPKDTLMISRTPEVTCVVVDVSHEDPEVKFNWYVDGVEVHNAKTKPREEQYNSTYRVVSVLTVLHQDWLNGKEYKCKVSNKALPASIEKTISKAKGQPREPQVCTLPPSRDELTKNQVSLSCAVKGFYPSDIAVEWESNGQPENNYKTTPPVLDSDGSFFLVSKLTVDKSRWQQGNVFSCSVMHEALHNHYTQKSLSLSPGK
heavy: EVQLLESGGGLVQPGGSLRLSCAVSGFTFNSFAMSWVRQAPGKGLEWVSAISGSGGGTYYADSVKGRFTISRDNSKNTLYLQMNSLRAEDTAVYFCAKDKILWFGEPVFDYWGQGTLVTVSSASTKGPSVFPLAPSSKSTSGGTAALGCLVKDYFPEPVTVSWNSGALTSGVHTFPAVLQSSGLYSLSSVVTVPSSSLGTQTYICNVNHKPSNTKVDKKVEPKSCDKTHTCPPCPAPEFEGGPSVFLFPPKPKDTLMISRTPEVTCVVVDVSHEDPEVKFNWYVDGVEVHNAKTKPREEQYNSTYRVVSVLTVLHQDWLNGKEYKCKVSNKALPASIEKTISKAKGQPREPQVYTLPPCRDELTKNQVSLWCLVKGFYPSDIAVEWESNGQPENNYKTTPPVLDSDGSFFLYSKLTVDKSRWQQGNVFSCSVMHEALHNHYTQKSLSLSPGK
light: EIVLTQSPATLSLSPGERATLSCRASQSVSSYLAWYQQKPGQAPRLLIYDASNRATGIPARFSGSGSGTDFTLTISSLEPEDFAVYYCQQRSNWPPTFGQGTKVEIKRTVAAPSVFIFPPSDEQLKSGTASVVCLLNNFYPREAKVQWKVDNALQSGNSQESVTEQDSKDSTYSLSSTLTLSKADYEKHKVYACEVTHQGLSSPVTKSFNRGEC
notes: Comparative: anti-CD38 (Dara) Fab arm and anti-CD3 scFv (CD3 antibody 2 VH/VL)-Fc fusion peptide
B5: Y150-F8-5 (bispecific antibody, human IgG1, kappa)
scFv: QVQLVESGGGVVQPGRSLRLSCAASGFTFSTYAMNWVRQAPGKGLEWVARIRSKYNNYATYYADSVKDRFTISRDDSKNTLYLQMNSLRAEDTAVYYCARHGNFGNSYVSWFAYWGQGTLVTVSSGGGGSGGGGSGGGGSQTVVTQEPSLTVSPGGTVTLTCRSSTGAVTTSNYANWVQQKPGQAPRGLIGGTNKRAPGVPARFSGSLLGGKAALTLSGVQPEDEAEYYCALWYSNLWVFGGGTKVEIKGGGGSDKTHTCPPCPAPEFEGGPSVFLFPPKPKDTLMISRTPEVTCVVVDVSHEDPEVKFNWYVDGVEVHNAKTKPREEQYNSTYRVVSVLTVLHQDWLNGKEYKCKVSNKALPASIEKTISKAKGQPREPQVCTLPPSRDELTKNQVSLSCAVKGFYPSDIAVEWESNGQPENNYKTTPPVLDSDGSFFLVSKLTVDKSRWQQGNVFSCSVMHEALHNHYTQKSLSLSPGK
heavy: EVQLLESGGGLVQPGGSLRLSCAVSGFTFNSFAMSWVRQAPGKGLEWVSAISGSGGGTYYADSVKGRFTISRDNSKNTLYLQMNSLRAEDTAVYFCAKDKILWFGEPVFDYWGQGTLVTVSSASTKGPSVFPLAPSSKSTSGGTAALGCLVKDYFPEPVTVSWNSGALTSGVHTFPAVLQSSGLYSLSSVVTVPSSSLGTQTYICNVNHKPSNTKVDKKVEPKSCDKTHTCPPCPAPEFEGGPSVFLFPPKPKDTLMISRTPEVTCVVVDVSHEDPEVKFNWYVDGVEVHNAKTKPREEQYNSTYRVVSVLTVLHQDWLNGKEYKCKVSNKALPASIEKTISKAKGQPREPQVYTLPPCRDELTKNQVSLWCLVKGFYPSDIAVEWESNGQPENNYKTTPPVLDSDGSFFLYSKLTVDKSRWQQGNVFSCSVMHEALHNHYTQKSLSLSPGK
light: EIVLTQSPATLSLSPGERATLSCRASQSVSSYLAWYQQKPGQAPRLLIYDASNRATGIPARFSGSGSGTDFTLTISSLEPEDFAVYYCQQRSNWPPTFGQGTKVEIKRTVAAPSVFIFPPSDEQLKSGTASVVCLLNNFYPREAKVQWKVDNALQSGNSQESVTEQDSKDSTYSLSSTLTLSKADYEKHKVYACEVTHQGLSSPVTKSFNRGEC
notes: also called Y150-8-5
B6: CT-F1 (bispecific antibody, human IgG1, kappa)
scFv: EVQLVESGGGLVQPGGSLRLSCAASGFTFSTYAMNWVRQAPGKGLEWVARIRSKYNNYATYYADSVKDRFTISRDDSKNTLYLQMNSLRAEDTAVYYCARHGNFGNSYVSWFAYWGQGTMVTVSSGGGGSGGGGSGGGGSQAVVTQEPSLTVSPGGTVTLTCRSSTGAVTTSNYANWVQQKPGQAPRGLIGGTNKRAPGTPARFSGSLLGGKAALTLSGVQPEDEAEYYCALWYSNLWVFGGGTKLTVLGGGGSDKTHTCPPCPAPEFEGGPSVFLFPPKPKDTLMISRTPEVTCVVVDVSHEDPEVKFNWYVDGVEVHNAKTKPREEQYNSTYRVVSVLTVLHQDWLNGKEYKCKVSNKALPASIEKTISKAKGQPREPQVCTLPPSRDELTKNQVSLSCAVKGFYPSDIAVEWESNGQPENNYKTTPPVLDSDGSFFLVSKLTVDKSRWQQGNVFSCSVMHEALHNHYTQKSLSLSPGK
heavy: EVQLLESGGGLVQPGGSLRLSCAVSGFTFNSFAMSWVRQAPGKGLEWVSAISGSGGGTYYADSVKGRFTISRDNSKNTLYLQMNSLRAEDTAVYFCAKDKILWFGEPVFDYWGQGTLVTVSSASTKGPSVFPLAPSSKSTSGGTAALGCLVKDYFPEPVTVSWNSGALTSGVHTFPAVLQSSGLYSLSSVVTVPSSSLGTQTYICNVNHKPSNTKVDKKVEPKSCDKTHTCPPCPAPEFEGGPSVFLFPPKPKDTLMISRTPEVTCVVVDVSHEDPEVKFNWYVDGVEVHNAKTKPREEQYNSTYRVVSVLTVLHQDWLNGKEYKCKVSNKALPASIEKTISKAKGQPREPQVYTLPPCRDELTKNQVSLWCLVKGFYPSDIAVEWESNGQPENNYKTTPPVLDSDGSFFLYSKLTVDKSRWQQGNVFSCSVMHEALHNHYTQKSLSLSPGK
light: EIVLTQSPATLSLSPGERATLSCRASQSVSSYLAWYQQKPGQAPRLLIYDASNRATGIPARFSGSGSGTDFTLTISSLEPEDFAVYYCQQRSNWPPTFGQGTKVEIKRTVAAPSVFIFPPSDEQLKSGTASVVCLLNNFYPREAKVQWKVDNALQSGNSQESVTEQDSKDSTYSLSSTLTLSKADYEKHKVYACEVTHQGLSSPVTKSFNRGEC
notes: Comparative: anti-CD38 (Dara) Fab arm and anti-CD3 scFv (CD3 antibody 1 VH/VL)-Fc fusion peptide
B7: Y150-F8-8 (bispecific antibody, human IgG1, kappa)
scFv: QVQLVESGGGVVQPGRSLRLSCAASGFTFSTYAMNWVRQAPGKGLEWVARIRSKYNNYATYYADSVKDRFTISRDDSKNTLYLQMNSLRAEDTAVYYCARHGNFGNSYVSWFAYWGQGTLVTVSSGGGGSGGGGSGGGGSQTVVTQEPSLTVSPGGTVTLTCRSSTGAVTTSNYANWVQQKPGQAPRGLIGGTNKRAPGVPARFSGSLLGGKAALTLSGVQPEDEAEYYCALWYSNLWVFGGGTKVEIKGRGRGSDKTHTCPPSPAPPVAGPSVFLFPPKPKDTLMISRTPEVTCVVVDVSHEDPEVQFNWYVDGVEVHNAKTKPREEQFNSTFRVVSVLTVVHQDWLNGKEYKCKVSNKGLPAPIEKTISKTKGQPREPQVCTLPPSRDELTKNQVSLSCAVKGFYPSDIAVEWESNGQPENNYKTTPPVLDSDGSFFLVSKLTVDKSRWQQGNVFSCSVMHEALHNHYTQKSLSLSPGK
heavy: EVQLLESGGGLVQPGGSLRLSCAVSGFTFNSFAMSWVRQAPGKGLEWVSAISGSGGGTYYADSVKGRFTISRDNSKNTLYLQMNSLRAEDTAVYFCAKDKILWFGEPVFDYWGQGTLVTVSSASTKGPSVFPLAPSSKSTSGGTAALGCLVKDYFPEPVTVSWNSGALTSGVHTFPAVLQSSGLYSLSSVVTVPSSSLGTQTYICNVNHKPSNTKVDKKVEPKSCDKTHTCPPSPAPPVAGPSVFLFPPKPKDTLMISRTPEVTCVVVDVSHEDPEVQFNWYVDGVEVHNAKTKPREEQFNSTFRVVSVLTVVHQDWLNGKEYKCKVSNKGLPAPIEKTISKTKGQPREPQVYTLPPCRDELTKNQVSLWCLVKGFYPSDIAVEWESNGQPENNYKTTPPVLDSDGSFFLYSKLTVDKSRWQQGNVFSCSVMHEALHNHYTQKSLSLSPGK
light: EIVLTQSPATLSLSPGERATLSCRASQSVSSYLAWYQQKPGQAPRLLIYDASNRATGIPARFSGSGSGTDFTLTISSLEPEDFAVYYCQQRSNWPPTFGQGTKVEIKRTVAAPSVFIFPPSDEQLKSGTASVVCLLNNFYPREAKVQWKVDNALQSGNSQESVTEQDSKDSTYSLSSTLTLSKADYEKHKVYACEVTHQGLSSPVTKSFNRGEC
notes: Anti-CD38 (Dara) Fab arm and anti-CD3 scFv (VH2a/VL5)-Fc fusion peptide, CH2 SG2

Molecular target: T1, monkey CD3 (monkey)
T1 construct: whole, on cells; also called CD3 on monkey CD3 positive T cells
Test: flow cytometry on monkey CD3 positive T cells

Binder	EC50 [nM]
B1	229
B2	142
B3	29.2
B4	174
B5	291
B6	347
B7	159
